Assay results: publication PMC10599318, “RNA-sequencing analysis reveals novel genes involved in the different peel color formation in eggplant”

B1: SmASAT3 probe (dsDNA)
DNA 1: TTGGTTTTTATGGGCACAGTTGCTACTATGGGTGAATA
DNA 2: TATTCACCCATAGTAGCAACTGTGCCCATAAAAACCAA
B2: SmGST probe (dsDNA)
DNA 1: CAGACTTTCCACTCAACCACTGGTTGCTGCTCATCTTCA
DNA 2: TGAAGATGAGCAGCAACCAGTGGTTGAGTGGAAAGTCTG
B3: SmMATE probe (dsDNA)
DNA 1: AACAATTGCTATAACTACAGTTAGGGAATGCAATTACCG
DNA 2: CGGTAATTGCATTCCCTAACTGTAGTTATAGCAATTGTT
B4: SmF3'5'M probe (dsDNA)
DNA 1: TTTTTTTTTTGCTTAGACAACTGGCAAGGATTTTACTAA
DNA 2: TTAGTAAAATCCTTGCCAGTTGTCTAAGCAAAAAAAAAA
B5: SmCytb5 probe (dsDNA)
DNA 1: TCCAAGTTTTTTTCTTTGGTTGATAATTTTATCTAACG
DNA 2: CGTTAGATAAAATTATCAACCAAAGAAAAAAACTTGGA

Target: T1, SmMYB113 (Solanum melongena, UniProt A0A0A0QP33 1-256)
T1 sequence: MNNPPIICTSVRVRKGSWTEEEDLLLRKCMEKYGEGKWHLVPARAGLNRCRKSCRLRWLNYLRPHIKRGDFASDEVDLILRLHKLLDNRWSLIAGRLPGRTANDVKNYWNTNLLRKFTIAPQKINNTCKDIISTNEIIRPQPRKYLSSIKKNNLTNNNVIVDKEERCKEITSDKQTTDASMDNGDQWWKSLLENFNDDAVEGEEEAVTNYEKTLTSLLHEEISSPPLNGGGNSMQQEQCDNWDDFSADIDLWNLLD
Assay: EMSA; EMSA per manufacturer's instructions (Thermo Pierce); buffer, salt, pH and temperature not stated; unlabeled competitor 10x, 30x, 100x
Conditions: protein: recombinant; tags: His (pET32a fusion); label: biotin; blunt

Row | Binder | binding result
1 | B1 | binds
2 | B2 | binds
3 | B3 | binds
4 | B4 | binds
5 | B5 | binds
